Assay results as given in the nanobody polyreactivity screen of Harvey et al. (2022).

Test: yeast display, Sf9 membrane polyspecificity reagent, FACS + sequencing; frameworks hold sequencing errors
Outline: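 Nanobodies came from a synthetic yeast display library in Saccharomyces cerevisiae BJ5465, induced with galactose for 36–48 hours and stained for 1 hour at 4 °C with 10% biotinylated, detergent-solubilized Sf9 membrane reagent. Cells were enriched on streptavidin microbeads and then FACS-sorted, with low and high (top ~1%) gates set on anti-HA fluorescence for expression and streptavidin fluorescence for reagent binding. Each polyreactivity label reflects the gate a clone came from. Genes were amplified by colony PCR, sequenced by MiSeq 2 × 250 and filtered by CDR length.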

Row | Sequence | polyreactivity (PSR sort gate)
1 | QVQLVESGGGLVQAGGSLRLSCAASGYIFDNNAMGWYRQAPGKERELVAAINWSGGSTYYADSVKGRFTISRDNAKNTVYLQMNSLKPEDTAVYYCNKLIYGIYYPERYAYDYWGQGTQVTVSS | low polyreactivity
2 | QVQLLESGGGLVQAGGSLRLSCAASGFTFWYYAMGWYRQAPGKEREFVASISWNGGRTYYADSVKGRFTISRDNAMNTVYLQMNSLKPEDTAVYYCATRVIYSFTDFKGDYWGQGTQVTVSS | high polyreactivity
3 | QFQLVESGGGFVQAGGSLRLSCAASGRIFGPYAMGWYRQAPGKERELVAAISFSGSGTYYADSVKGRFTISRDNAKNTVYLQMNSLKPEDTAVYYCAATSRKIVAYDHDYWGQGTQVTVSS | low polyreactivity
4 | QVQLVESGVGLVQAGGSLRLSCAASGFIFYNYAMGWYRQAPGKERELVASITSGGGTNYADSVKGRFTISRDNAKNTVYLQMNSLKPEDTAVYYCAVRGRGRFNGYGYWGQGTQVTVSS | high polyreactivity
5 | QVQLVESGGGLVQAGGSLRLSCAASGYMFGGYAMGWYRQAPGKAREFVAAISDISGSTYYADSVKGRFTISRDNAKNTVYLQMNSLKPEDTAVYYGGHTSTADEDYWGQGTQVTVSS | low polyreactivity
6 | QVQLVESGGGLVQAGGSLRLSCAASGGTFPGYTMGWYRQAPGKERELVAAISRGGRTYYADSVKGRFTISRDNAKNTVYLQMNSLKPEDTAVYYCNAVTKYGNFDYWGQGTQVTVSS | high polyreactivity
7 | QVQLVESGGGLVQAGGSLRLSCAASGLTFGANDMGWYRQAPGKERELVAAIDWSGGSTFYADSVKGRFTISRDNAKNTVYLQMNSLKPEDTAVYYCAALGFGYPYPEYDYWGQGTQVTVSS | low polyreactivity
8 | QVQLVESGGGLVQAGGSLRLSCAASGSTFLYYAMGWYRQAPGKERELVAAITSSGGRTYYADSVKGRFTISRDNAKNTVYLQMNSLKPEDTAVYYCARGWPRREQSEYDYWGQGTQVTVSS | high polyreactivity
9 | QVQLVDSGGGLVQAGGSLRLSCAASGLIVFYAMGWYRQAPGKERELVAGISSGGNTNYADSVKGRFTISRDNAKNTFYLQMNSMKPQDTSVYYCAAVYLLSSYDFWGQGTQVTVSS | high polyreactivity
10 | QVQLVESGGGLVQAGGSLRLSCAASGSTLLANAMGWYRQAPGKERELVATITNSGGGTYYADSVKGRFTISRDNAKNTVYLQMNSLKPEDTAVYYCAAVYTGRSQYSKWRYEYWGQGTQVTVSS | low polyreactivity
11 | QVQLVESGGGLVQAGGRLRLSCASSGITFTFNAMGRYTQAPGKEMELVAAITWSGGSTFYADSVKGRFTISRDNAKNSVYLQMNSLIPEDTAVYYCARDTELYVRWLDYWGQGTQVTVSS | low polyreactivity
12 | QVQLVESGGGLVQAGGSLRLSCAASGFIFTRYAMGWYRQAPGKERELVAAIRWRGSSTYYADSVKGRFTISRDNAKNTVYLQMNSLKPEDTAVYYCAAQPSRSTYLAPSRDHWGQGTQVTVSS | low polyreactivity
13 | QVQLVESGGGLVQAGGSLRLSCAASGYTFLYNAMGWYRQAPGKERELVAAISWNGGRTYYADSVKGRFTISRDNAKNTVYLQMNSLKPEDTAVYYCAKTPSYGRNVDYWGQGTQVTVSS | high polyreactivity
14 | QVQLVESGGGLVQAGGSRRLSCADSGSIFDQYTMGWSRQAPGKEWELVAGISSGGITNYADSVKGRFTLSRDNAKNTVYLQMTSLKPEDTAVYYCPADNWDLAEYDYWGQGPQVTVSS | low polyreactivity
15 | QVQLVESGGGLVQAGGSLRLSCAASGSTFKRYSMGWYRQAPGKERELVASISGRGGGTYYADSVKGRFTISRDNEKNTVYLQMNSLIPEDTAVYYCAAYGRYYGFDYWGLGTQVTVSS | high polyreactivity
16 | QLQLVESGGGLDQAGGSLRLSCAASAFTFGYYSKGWNRQAPGKQTELVASISRSGGSTNYADSVKGRFTISRDNAKKTVYLQMNSLIPEDNAVYYCNNRVNTYRSVSRRYDYWGQGTQVTLSS | high polyreactivity
17 | QVQLVESGGGLVQAGGSLRLSCAASGFIFEWYTMGWYRQAPGKERELVARISSDGSTTYADSVKGRFTISRDNAKNTVYLQMNSLKPEDTAVYYCAADVTYPGLKYIFDYWGQGTQVTVSS | low polyreactivity
18 | QVQLVESGGGLVQAGGSLRLSCAASGSIFHIYMGWYRQSPGKERELVASNSYRGGTTYYADSVKGRFTISRDNAKNTVYLQMNSLKPEDTAVYDCNVDRYFYHYGRYGHMDYWGQGTQVTVSS | low polyreactivity
19 | QVQLVESGGGLVQAGGSLRLSCAASGFIFLGNAKGWYRQATGKERELVAAISSGGSTYADSVKGRFTISRDNAKNTVYLQMNSLKPEDTAVYYCAVDRAFRAQNYHEYDYWGQGTQVTVSS | low polyreactivity
20 | QVQLVESGGGLVQAGGSLRLSCAASGSTFIYNALGWYRQAPGKERELVAAISSGGSTYYADSVKGRFTISRDNAKNSVYLQMNSLKPEDTAVYYCAAKGFPRSGYPYQAQHMYYWGQGTQVTVSS | low polyreactivity
21 | QVQLVESGGGLVQAGGSLRLSCAASGRIFYRNAMGWYRQAPGKERELVAAISSGSGTYYADSVKGRFTISRDNAKNTVYLQMNSLKPEDTAVYYCAARARSRDYYWGQGTQVTVSS | high polyreactivity
22 | QVQIVESGGGLVDAGGSLRLSCAASGRTFPPYAMGWYRQAPGKERELVAAISGSGASTYYADSVKGRFTISRDNAKNTVKLQWISQKPEDTAVYSWARYRGYWGRYYGVHYGYWGQGTQVTVSS | high polyreactivity

Row | Sequence | polyreactivity (PSR sort gate)
23 | QVQIVESGGGLVQAGGSLRLSCAASGRTFSKYAMGWYRQSTWKERELVASITWSGGTTNYADSVKGRVTISRDNAKNTVYLQMNSLKPEDTAVFYCNAQIASDGFNPGKSDYWGLGTQVTVSS | low polyreactivity
24 | QVQLVESGGGLVQAGGSLRLSCAASGLTFWYYDMGWYRQAPGKERELVAAISGTGSTYADSVKGRFTISRDNAKNTVYLQMNSLKPEDTAVYYCAADYSGTPYAVYWQWGDYDYWGQGTQVTVSS | low polyreactivity
25 | QVQLVESGGGLVQAGGSLRLSCAASGSTFDYYTMGWYRQAPGKERELVAAISSSGGSTYYADSVKGRFTISRDNAKNTVYLQMNSLKPEDTAVYYCAADPSPYGDEYDYWGQGTQVTVSS | low polyreactivity
26 | QVHLVESGGGLVQAGGSLRLSCAASGRTFIENAMGWYRQAPGKERELVAAIFSGGSTYYADSVKGRFTISRDNAKKTVDLQLNSLKPEDTAVYYCDARFARYDWSMYYWGQGTQVTVSS | low polyreactivity
27 | QVQVVESGGGLVQAGGSLRLSCAASGSIFHAYTMGWSRQAPGKERELVAAISRGDRTYYADSVKGRFTISRDNAKNTVSLQMNSLKPEDTAVYYCNRDRYRYDSWGQGTQLTVSS | high polyreactivity
28 | QVQLVESGVGLVQAGGSLRLSCAASGSTFSYYAMGWYRQAPGKERELVAAITRSGGRTYYADSVKGRFTISRDNAKNTVYLQMNSLKPEDTAVYYCAALSVGTRRDYWGQGTQVTVSS | low polyreactivity
29 | QVQLVESGGGLVQAGGSLRISCAASGSTFSRNVMGWYRQAPGKERELVAAISRGGSTNYADSVKGRFTISRDNAKKTVYLQMNSLKTEVTAVYYCNAPRLGKFYYWGQGTQVTVSS | low polyreactivity
30 | QVQLVESGGGLVQAGGSLRLICAASGRTFGRYAMGWYRQAPGKERELVADIDYGGGSTYYADSEKGRFTISRDNAKNTVYLQMNSLKPEDTAVYYCNARRDIGWGYHMDYWGQGTQVTVSS | high polyreactivity
31 | QVQLVESGGGLVQAGGTLRLSCAASGIIFYYYAMGWYRQAPGKERELVAAITGTGSRTYYADSVKGRFTISRDNAKNTVYLQMNSLKPEDTADYYCNARSFATGSKVPARGYWGQGTQVTVSS | high polyreactivity
32 | QVQLEESGGGLVQAGGSLRLSCAASGSIFFGNDMGWYSQAPGKERELVAGISNGGRTNYADSVKGRFTISRDNAKNHVYLLMHSLKPEDTAVYYCAKHPVYIYWSRVLVGYSSWGQGTQGTVSS | low polyreactivity
33 | QVQLVESGGGLVQAGGSLRLSCAASGSTFQSYTMGWYRQAPGKERELVATITSTSSTSYADSVKGRFTISRDNAKNTVYLQMNSLKPEDTAVYYCNAEGLHWGQGTQVTVSS | low polyreactivity
34 | QVQLVESGGGLVQAGGSLRLSCAASGSIFRKNAMGWYRQAPGKERELVAAITYRTGSTYYADSVKGRFTISRDNAKNTVYLQMNSLKPEDTAVYYCAAQTWGSGYGHIGRRRHDYWGQGTQVTVSS | high polyreactivity
35 | QVQLVDSVGGLVQAGGSLRLSCAASGSIFGVYAKGWYRQAPGKERELVAAIDESGGSTFYADSVKGRFTISRDNAKNTVYLQMNSLKPEDTAVYYCLVFREDSGPGDYYYWGQGTQVTVSS | low polyreactivity
36 | QVQLVESGGGLVQAGGSLRLSCAASGFTFGGYVMGWYRQAPGKERELVAAISSSGGITHYADSVKGRFTISRDNAKNTVYLQMNSLKPEDTAVYYCNALYRQRYYWGQGTQVTVSS | high polyreactivity
37 | QVQLVESGGGLVQAGGSLRLSCAASGGTIENYAMGWYRQAPGKERELVAAISSGGSTNYADSVKGRFTISRDNAKNTVYLQMNSLKPEDTAVYYCATRGIWKKVPYYYWGQGTQVTVSS | low polyreactivity
38 | QFHLVESGGGLFQAGGSLRISCAASGRTLLVNAMGWYRQAPGKERELVAVITRGGSTNYADSVKGRFTISRDNAKNTVYLQMNSLKPEDTAVYYCAKQFSPYRSYGPVVRYDYWGQGTQVTVSS | low polyreactivity
39 | QVQLVESGGGLVQAGGSLRLSCAASGRIFRYYDMGWYRQAPGKEREFVAAITRSGAITYYADSVKGRFTISRDNAKNTVYLQMNSLKPEDTAVYYCAARYWAKFGYWGQGTQVTVSS | low polyreactivity
40 | QVQLVESGGGLVQAGGSLRLSCAASGSINVRYAMGWYRQAPGKERELVAAISWSGGRTYYADSVKGRFTISRDNAKNTVYLQMNSLKPEDTAVYYCAADSSVRYRDTEDYWGQGTQVTVSS | low polyreactivity
41 | QVQLVESGGGLVQAGGSLRLSCAASGRTFYRNDMVWYRQSPGKERELVARITSGGSTNYADSVKGRFTISRDNAKNTVYLQMNSLKPEDTGVYYCAAVSRYYPYGYWGQGTQVTVSS | high polyreactivity
42 | QVQLVESGGGLVQAGGSLRLSCAASGRTFHSYAMGWYRPAPGKETELVAGISWGGTRTTYADSVTGRFTISRDNAKNTVYLQMNSLKPEDTAVYYCNAVYYALGRSPPDYGYWGQGTQVTVSS | low polyreactivity
43 | QVQLVESGGGLVQAGGSLRLSCAASGITFDTYAMGWYRQAPGKERELVAAISKSGGSPYYADSVKARFTISRDNAKNTVYLQMNSLKPEDTAVNYCNARYRHSGRYWDWYYYWGQGTQVTVSS | high polyreactivity
